Consider 2 molecules from US20150306174A1 (NEW YORK BLOOD CENTER, published 2015).

Series [1] deals with T1, C34 (HIV-1).
T1 construct: also called CHR-peptide C34; C-peptide C34
The series can be described thus: CD spectroscopy of the N-peptide/C-peptide mixture in PBS.

The target of series [2] is T1, C34. The series can be described thus: CD thermal denaturation monitored at 222 nm.

Ends that are not written are not given here.

B1: N28 (peptide)
peptide: IEAQQHLLQLTVWGIKQLQARILAVERY
notes: Residue numbers count on HIV-1 HXB2 gp160; also called N28 peptide; free N28 peptide
Take B1: the binding result in series [1] is “no binding (tested: 10 µM)”.

B2: N28Fd trimer (designed binder)
chain: IEAQQHLLQLTVWGIKQLQARILAVERYGYIPEAPRDGQAYVRKDGEWVLLSTFL
modifications: also: trimer
notes: It gives the full length as 55 residues; also called FdN28Fd1
On to B2, for which, in series [2], the “Tm of the complex” value was 62.2 ° C.
